Results from paper PMC2756588.

Legend:
Test in all cases: SPOT array
Cdc25, P04821 = molecular target: T1, Cdc25, P04821; details: median of control spots 969
T1 sequence (P04821 50-136, looked up): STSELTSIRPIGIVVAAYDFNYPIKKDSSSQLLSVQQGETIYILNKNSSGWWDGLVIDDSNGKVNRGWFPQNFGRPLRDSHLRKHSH

Boi1, P38041 = molecular target: T2, Boi1, P38041; details: median of control spots 1162
T2 sequence (P38041 1-86, looked up): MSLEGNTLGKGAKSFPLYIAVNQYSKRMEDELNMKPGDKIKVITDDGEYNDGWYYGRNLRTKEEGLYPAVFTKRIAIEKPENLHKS

Myo5, Q04439 = molecular target: T3, Myo5, Q04439; details: median of control spots 471
T3 sequence (Q04439 1072-1160, looked up): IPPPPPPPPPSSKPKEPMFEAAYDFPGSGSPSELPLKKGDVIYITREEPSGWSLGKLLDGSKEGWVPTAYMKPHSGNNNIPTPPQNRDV

Abp1, P15891 = molecular target: T4, Abp1, P15891; details: median of control spots 935
T4 sequence (P15891 535-592, looked up): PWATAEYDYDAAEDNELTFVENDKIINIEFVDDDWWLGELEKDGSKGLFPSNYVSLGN

Sla1-3, P32790 = molecular target: T5, Sla1-3, P32790; details: median of control spots 5475
T5 sequence (P32790 344-424, looked up): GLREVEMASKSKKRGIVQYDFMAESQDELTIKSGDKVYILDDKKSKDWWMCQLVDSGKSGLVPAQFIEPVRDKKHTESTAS

GST = details: median of control spots 978
Cyk3, Q07533 = molecular target: T6, Cyk3, Q07533; details: median of control spots 1451
T6 sequence (Q07533 1-83, looked up): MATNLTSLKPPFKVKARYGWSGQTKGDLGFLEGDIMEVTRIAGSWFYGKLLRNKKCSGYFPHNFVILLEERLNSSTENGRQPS

Bzz1-2, P38822 = molecular target: T7, Bzz1-2, P38822; details: median of control spots 4538
T7 sequence (P38822 568-633, looked up): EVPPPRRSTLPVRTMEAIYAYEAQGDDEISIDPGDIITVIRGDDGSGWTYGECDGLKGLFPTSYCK

Boi2, P39969 = molecular target: T8, Boi2, P39969; details: median of control spots 1161
T8 sequence (P39969 32-116, looked up): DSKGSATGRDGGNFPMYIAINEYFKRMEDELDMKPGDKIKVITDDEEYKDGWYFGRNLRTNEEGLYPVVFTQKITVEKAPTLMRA

Bud14, P27637 = molecular target: T9, Bud14, P27637; details: median of control spots 956
T9 sequence (P27637 247-328, looked up): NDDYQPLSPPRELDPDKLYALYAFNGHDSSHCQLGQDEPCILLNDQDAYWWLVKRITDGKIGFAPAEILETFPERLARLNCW

Sla1-2, P32790 = molecular target: T10, Sla1-2, P32790; details: median of control spots 712
T10 sequence (P32790 60-140, looked up): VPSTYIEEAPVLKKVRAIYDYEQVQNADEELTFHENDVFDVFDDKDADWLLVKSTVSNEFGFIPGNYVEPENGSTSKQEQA

Pin3, Q06449 = molecular target: T11, Pin3, Q06449; details: median of control spots 2171
T11 sequence (Q06449 53-122, looked up): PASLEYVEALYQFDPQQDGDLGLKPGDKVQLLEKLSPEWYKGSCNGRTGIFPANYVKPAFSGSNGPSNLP

Lsb1, P53281 = molecular target: T12, Lsb1, P53281; details: median of control spots 388
T12 sequence (P53281 45-122, looked up): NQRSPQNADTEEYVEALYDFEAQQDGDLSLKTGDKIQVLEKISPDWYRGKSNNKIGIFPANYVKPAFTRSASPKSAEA

Nbp2, Q12163 = molecular target: T13, Nbp2, Q12163; details: median of control spots 357
T13 sequence (Q12163 103-180, looked up): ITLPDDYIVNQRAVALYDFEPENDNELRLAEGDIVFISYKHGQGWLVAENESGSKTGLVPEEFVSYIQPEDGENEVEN

Pex13, P80667 = molecular target: T14, Pex13, P80667; details: median of control spots 1341
T14 sequence (P80667 295-386, looked up): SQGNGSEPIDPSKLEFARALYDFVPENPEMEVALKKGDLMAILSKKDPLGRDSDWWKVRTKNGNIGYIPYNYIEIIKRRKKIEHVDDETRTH

Fus1, P11710 = molecular target: T15, Fus1, P11710; details: median of control spots 1200
T15 sequence (P11710 432-512, looked up): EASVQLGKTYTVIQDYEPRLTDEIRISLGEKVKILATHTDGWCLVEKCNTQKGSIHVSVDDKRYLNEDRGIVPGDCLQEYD

Lsb3, P43603 = molecular target: T16, Lsb3, P43603; details: median of control spots 406
T16 sequence (P43603 385-451, looked up): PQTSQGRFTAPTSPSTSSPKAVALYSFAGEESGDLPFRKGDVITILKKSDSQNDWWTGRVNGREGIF

Myo3, P36006 = details: median of control spots 468
Hof1, Q05080 = molecular target: T17, Hof1, Q05080; details: median of control spots 4086
T17 sequence (Q05080 590-669, looked up): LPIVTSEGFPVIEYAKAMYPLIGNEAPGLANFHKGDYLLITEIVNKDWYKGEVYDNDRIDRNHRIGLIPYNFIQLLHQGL

Hse1, P38753 = molecular target: T18, Hse1, P38753; details: median of control spots 1727
T18 sequence (P38753 208-285, looked up): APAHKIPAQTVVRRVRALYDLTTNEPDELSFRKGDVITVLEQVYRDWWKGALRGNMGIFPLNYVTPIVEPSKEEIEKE

Bem1-1, P29366 = details: median of control spots 4282
Rvs167, P39743 = details: median of control spots 2707
Bbc1, P47068 = molecular target: T19, Bbc1, P47068; details: median of control spots 796
T19 sequence (P47068 1-78, looked up): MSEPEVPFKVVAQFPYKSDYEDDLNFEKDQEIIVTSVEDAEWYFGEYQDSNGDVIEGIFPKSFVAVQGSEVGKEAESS

Lsb4, P32793 = molecular target: T20, Lsb4, P32793; details: median of control spots 397
T20 sequence (P32793 402-468, looked up): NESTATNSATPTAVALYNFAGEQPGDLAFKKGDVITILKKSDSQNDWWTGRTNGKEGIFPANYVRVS

Bzz1-1, P38822 = molecular target: T21, Bzz1-1, P38822; details: median of control spots 4446
T21 sequence (P38822 478-572, looked up): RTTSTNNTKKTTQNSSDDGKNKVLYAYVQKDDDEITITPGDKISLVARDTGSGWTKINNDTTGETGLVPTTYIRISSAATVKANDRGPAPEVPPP

Bem1-2, P29366 = details: median of control spots 4347
Sho1, P40073 = details: median of control spots 1148
Sequence of Sho1, P40073 (P40073 287-367): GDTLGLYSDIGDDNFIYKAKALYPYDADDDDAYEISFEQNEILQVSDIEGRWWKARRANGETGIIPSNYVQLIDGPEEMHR

Sequence of Bem1-1, P29366 (P29366 55-141): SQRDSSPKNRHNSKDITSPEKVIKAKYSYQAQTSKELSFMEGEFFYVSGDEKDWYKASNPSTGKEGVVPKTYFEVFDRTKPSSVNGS
Sequence of Rvs167, P39743 (P39743 419-482): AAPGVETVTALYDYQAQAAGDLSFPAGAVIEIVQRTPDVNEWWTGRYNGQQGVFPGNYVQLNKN
Sequence of Bem1-2, P29366 (P29366 139-227): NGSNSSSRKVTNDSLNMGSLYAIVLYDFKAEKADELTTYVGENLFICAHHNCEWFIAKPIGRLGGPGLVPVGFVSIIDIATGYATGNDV

DAPASKPSVPPRNYF
SPOT intensity (Cdc25, P04821): 0 | SPOT intensity (Boi1, P38041): 0 | SPOT intensity (Myo5, Q04439): 0 | SPOT intensity (Abp1, P15891): 17 | SPOT intensity (Sla1-3, P32790): 12 | SPOT intensity (GST): 0 | SPOT intensity (Cyk3, Q07533): 1 | SPOT intensity (Bzz1-2, P38822): 0 | SPOT intensity (Boi2, P39969): 0 | SPOT intensity (Bud14, P27637): 0 | SPOT intensity (Sla1-2, P32790): 0 | SPOT intensity (Pin3, Q06449): 23 | SPOT intensity (Lsb1, P53281): 1310 | SPOT intensity (Nbp2, Q12163): 2 | SPOT intensity (Pex13, P80667): 91 | SPOT intensity (Fus1, P11710): 0 | SPOT intensity (Lsb3, P43603): 125 | SPOT intensity (Myo3, P36006): 0 | SPOT intensity (Hof1, Q05080): 0 | SPOT intensity (Hse1, P38753): 0 | SPOT intensity (Bem1-1, P29366): 0 | SPOT intensity (Rvs167, P39743): 58 | SPOT intensity (Bbc1, P47068): 6 | SPOT intensity (Lsb4, P32793): 231 | SPOT intensity (Bzz1-1, P38822): 0 | SPOT intensity (Bem1-2, P29366): 0 | SPOT intensity (Sho1, P40073): 0

FYNRTAFQLPGDARV
SPOT intensity (Cdc25, P04821): 0 | SPOT intensity (Boi1, P38041): 0 | SPOT intensity (Myo5, Q04439): 1 | SPOT intensity (Abp1, P15891): 3 | SPOT intensity (Sla1-3, P32790): 5 | SPOT intensity (GST): 0 | SPOT intensity (Cyk3, Q07533): 0 | SPOT intensity (Bzz1-2, P38822): 0 | SPOT intensity (Boi2, P39969): 0 | SPOT intensity (Bud14, P27637): 4 | SPOT intensity (Sla1-2, P32790): 0 | SPOT intensity (Pin3, Q06449): 151 | SPOT intensity (Lsb1, P53281): 2060 | SPOT intensity (Nbp2, Q12163): 2 | SPOT intensity (Pex13, P80667): 6 | SPOT intensity (Fus1, P11710): 0 | SPOT intensity (Lsb3, P43603): 2 | SPOT intensity (Myo3, P36006): 1 | SPOT intensity (Hof1, Q05080): 0 | SPOT intensity (Hse1, P38753): 2 | SPOT intensity (Bem1-1, P29366): 0 | SPOT intensity (Rvs167, P39743): 0 | SPOT intensity (Bbc1, P47068): 0 | SPOT intensity (Lsb4, P32793): 0 | SPOT intensity (Bzz1-1, P38822): 2 | SPOT intensity (Bem1-2, P29366): 1 | SPOT intensity (Sho1, P40073): 4

AIPPPVPNRPGGTTN
SPOT intensity (Cdc25, P04821): 0 | SPOT intensity (Boi1, P38041): 1 | SPOT intensity (Myo5, Q04439): 0 | SPOT intensity (Abp1, P15891): 7 | SPOT intensity (Sla1-3, P32790): 1 | SPOT intensity (GST): 0 | SPOT intensity (Cyk3, Q07533): 2 | SPOT intensity (Bzz1-2, P38822): 0 | SPOT intensity (Boi2, P39969): 0 | SPOT intensity (Bud14, P27637): 2 | SPOT intensity (Sla1-2, P32790): 0 | SPOT intensity (Pin3, Q06449): 48 | SPOT intensity (Lsb1, P53281): 948 | SPOT intensity (Nbp2, Q12163): 1 | SPOT intensity (Pex13, P80667): 375 | SPOT intensity (Fus1, P11710): 0 | SPOT intensity (Lsb3, P43603): 453 | SPOT intensity (Myo3, P36006): 8 | SPOT intensity (Hof1, Q05080): 1 | SPOT intensity (Hse1, P38753): 22 | SPOT intensity (Bem1-1, P29366): 1 | SPOT intensity (Rvs167, P39743): 1430 | SPOT intensity (Bbc1, P47068): 196 | SPOT intensity (Lsb4, P32793): 222 | SPOT intensity (Bzz1-1, P38822): 2 | SPOT intensity (Bem1-2, P29366): 1 | SPOT intensity (Sho1, P40073): 0

NLDRSKISLPDFDDE
SPOT intensity (Cdc25, P04821): 35 | SPOT intensity (Boi1, P38041): 7 | SPOT intensity (Myo5, Q04439): 0 | SPOT intensity (Abp1, P15891): 23 | SPOT intensity (Sla1-3, P32790): 2 | SPOT intensity (GST): 36 | SPOT intensity (Cyk3, Q07533): 4 | SPOT intensity (Bzz1-2, P38822): 3 | SPOT intensity (Boi2, P39969): 2 | SPOT intensity (Bud14, P27637): 20 | SPOT intensity (Sla1-2, P32790): 1 | SPOT intensity (Pin3, Q06449): 8 | SPOT intensity (Lsb1, P53281): 84 | SPOT intensity (Nbp2, Q12163): 6 | SPOT intensity (Pex13, P80667): 3 | SPOT intensity (Fus1, P11710): 4 | SPOT intensity (Lsb3, P43603): 0 | SPOT intensity (Myo3, P36006): 1 | SPOT intensity (Hof1, Q05080): 8 | SPOT intensity (Hse1, P38753): 3 | SPOT intensity (Bem1-1, P29366): 3 | SPOT intensity (Rvs167, P39743): 6 | SPOT intensity (Bbc1, P47068): 15 | SPOT intensity (Lsb4, P32793): 5 | SPOT intensity (Bzz1-1, P38822): 3 | SPOT intensity (Bem1-2, P29366): 0 | SPOT intensity (Sho1, P40073): 16
